From patent US20230093512A1 come the findings set out here.

Where two headings read alike, the source gives them in different places.

In experiment [1] the target is human PD-L1 (PD-L1 aAPC/CHO-K1 cells) (human) (UniProt Q9NZQ7).
The target in experiment [2] is PD-L1 that is over expressed on CHO-K1 cells (Homo sapiens (Human)) (UniProt Q9NZQ7). Kind of experiment: flow cytometry (FACS) on CHO-K1 cells over expressing PD-L1, geometric mean.
The target of experiment [3] is TGF-β1. Nature of the experiment: ELISA: TGF-β1 coated on the plate, HRP-conjugated 2nd antibody, OD450.
Chain of TGF-β1 (P01137 279-390): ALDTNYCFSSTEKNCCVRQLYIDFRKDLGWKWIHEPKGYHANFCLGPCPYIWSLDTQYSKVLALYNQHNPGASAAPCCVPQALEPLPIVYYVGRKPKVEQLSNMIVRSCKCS
Experiment [4] concerns the target TGF-β2. Kind of experiment: ELISA: TGF-β2 coated on the plate, HRP-conjugated 2nd antibody, OD450.
Experiment [5] deals with TGF-β3. Kind of experiment: ELISA: TGF-β3 coated on the plate, HRP-conjugated 2nd antibody, OD450.
Chain of TGF-β3 (P10600 301-412): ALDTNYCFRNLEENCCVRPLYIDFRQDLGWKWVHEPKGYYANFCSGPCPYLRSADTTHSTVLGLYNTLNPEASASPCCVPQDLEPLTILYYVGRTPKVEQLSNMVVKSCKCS
Experiment [6] has as its target TGF-β3. Described as above. This is another data set of the same source.
In experiment [7] the target is human PD-L1 (PD-L1 aAPC/CHO-K1 cells) (human) (UniProt Q9NZQ7). This is another data set of the same source.
For experiment [8], the target named is TGF-β3. Nature of the experiment: SPR, TGFβ ligand amine-coupled to chip, fusion protein as analyte, 25 °C, HBS-EP.
Experiment [9] addresses TGF-β2. The experiment is described as above.
The target of experiment [10] is TGF-β1. Described as above.
Experiment [11] deals with TGF-β2. Kind of experiment: ELISA: TGF-β2 coated on the plate, HRP-conjugated 2nd antibody, OD450. This is another data set of the same source.
Chain of TGF-β2 (P61812 303-414): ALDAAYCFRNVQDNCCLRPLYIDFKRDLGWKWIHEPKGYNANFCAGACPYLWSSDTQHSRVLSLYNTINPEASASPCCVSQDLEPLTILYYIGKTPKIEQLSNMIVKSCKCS
Experiment [12] addresses TGF-β1. Kind of experiment: ELISA: TGF-β1 coated on the plate, HRP-conjugated 2nd antibody, OD450. The source holds these as a separate data set.

Chain of human PD-L1 (PD-L1 aAPC/CHO-K1 cells) (human) (Q9NZQ7 19-290): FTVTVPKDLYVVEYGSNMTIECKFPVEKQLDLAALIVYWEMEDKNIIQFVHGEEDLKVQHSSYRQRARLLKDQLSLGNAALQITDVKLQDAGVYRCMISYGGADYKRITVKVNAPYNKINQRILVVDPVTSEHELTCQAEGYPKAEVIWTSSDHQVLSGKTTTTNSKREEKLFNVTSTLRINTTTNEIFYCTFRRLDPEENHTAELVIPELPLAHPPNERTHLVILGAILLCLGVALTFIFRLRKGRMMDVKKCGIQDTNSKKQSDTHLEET
Chain of PD-L1 that is over expressed on CHO-K1 cells (Homo sapiens (Human)) (Q9NZQ7 19-290 limits assumed): as the sequence (Q9NZQ7 19-290) above

In turn, Tecentriq (antibody) showed an EC50, luminescence (RLU) of PD-1 effector cells co-cultured with PD-L1 aAPC/CHO-K1 cells, PD-1/PD-L1 blockade bioassay in [1] of 0.398 nM.
Regarding M7824, the EC50 was 0.344 nM in experiment [2]; 0.327 µg/mL with TGF-β1 [3]; 0.432 µg/mL in the experiment with TGF-β2 [4]; 0.278 µg/mL with TGF-β3 [5]; 0.307 µg/mL with TGF-β3 [6]; 0.348 µg/mL with TGF-β2 [11]. In the experiment with TGF-β1 [12], this substance showed an EC50 of 0.255 µg/mL. In addition, the EC50, luminescence (RLU) of PD-1 effector cells co-cultured with PD-L1 aAPC/CHO-K1 cells, PD-1/PD-L1 blockade bioassay was 0.852 nM in experiment [1] and 0.77 nM in experiment [7]. For the same substance, the Kd was found to be 1.02 nM in the experiment with TGF-β3 [8], 4.6 nM with TGF-β2 [9] and 0.943 nM with TGF-β1 [10]. Further, the koff with TGF-β3 [8] is 0.00032 s⁻¹; with TGF-β2 [9], 0.00132 s⁻¹; in the experiment with TGF-β1 [10] it was 0.000315 s⁻¹. Besides, the results for the kon in the experiment with TGF-β3 [8], in the experiment with TGF-β2 [9] and with TGF-β1 [10] were 314000 M⁻¹ s⁻¹, 286000 M⁻¹ s⁻¹ and 334000 M⁻¹ s⁻¹, respectively.
